# Data reported in FireProtDB (doi:10.1074/jbc.m707838200).
# “And” between values parts separate entries of the source, which are not always exact repeats. Equal entries are not always repeated.
# B1: wild type, Q9EYL5 (protein)
# chain: MTKKLLTLFIVSMLILTACGKKESATTSSKNGKPLVVVYGDYKCPYCKELDEKVMPKLRKNYIDNHKVEYQFVNLAFLGKDSIVGSRASHAVLMYAPKSFLDFQKQLFAAQQDENKEWLTKELLDKHIKQLHLDKETENKIIKDYKTKDSKSWKAAEKDKKIAKDNHIKTTPTAFINGEKVEDPYDYESYEKLLKDKIK
# Conditions: Staphylococcus aureus; pH 7; 25 °C; Thermal; CD; Hepes-NaOH 20 mM; NaCl 170 mM; reversible: Yes; whole UniProt chain shown
protein,measurement,value
B1,unfolding free energy,7.19 kcal/mol and 7.14 kcal/mol
